Article PMC10718530

Legend:
[1] = molecular target: MreB from Geobacillus stearothermophilus (MreB^Gs), wild type, 6-histidine-tagged (Geobacillus stearothermophilus ATCC 7953); experiment: negative-stain electron microscopy; standard conditions (2 mM ATP, 100 mM KCl, MreB 1.34 µM) without lipids, in solution; untreated or glow-discharged grids
[2] = molecular target: MreB from Geobacillus stearothermophilus (MreB^Gs), wild type, 6-histidine-tagged (Geobacillus stearothermophilus ATCC 7953); experiment: negative-stain electron microscopy; MreB 1.34 µM (0.27-1.34 µM in the concentration series) under a monolayer of E. coli total lipid extract; 20 mM Tris pH 7, 100 mM KCl, 2 mM ATP, 5 mM Mg2+, 1-2 h at 25-37 °C; untreated carbon grids; 12 fields a grid scored for pairs of protofilaments; 2D averaging of 1554 particles
[3] = molecular target: MreB from Geobacillus stearothermophilus (MreB^Gs), wild type, 6-histidine-tagged (Geobacillus stearothermophilus ATCC 7953); experiment: negative-stain electron microscopy; standard conditions with the lipid monolayer but without ATP

With “MreB from Geobacillus stearothermophilus (MreB^Gs), wild type, 6-histidine-tagged (natural protein)” the percent of EM fields with polymers [1] was 8 % of fields, the critical concentration of polymerization [2] was 0.45 µM and the percent of EM fields with polymers [2] was 100 % of fields. The percent of EM fields with polymers [3] was 4 % of fields.
